In patent publication US20220213193A1 (BROWN UNIVERSITY, published 2022):

Molecular target: T1, recombinant human (rh) CHI3L1 (human, UniProt P36222 22-383)
T1 construct: also called rhCHI311; human CHI3L1
Test: competitive ELISA on recombinant antigen

T1 sequence (P36222 22-383 limits assumed): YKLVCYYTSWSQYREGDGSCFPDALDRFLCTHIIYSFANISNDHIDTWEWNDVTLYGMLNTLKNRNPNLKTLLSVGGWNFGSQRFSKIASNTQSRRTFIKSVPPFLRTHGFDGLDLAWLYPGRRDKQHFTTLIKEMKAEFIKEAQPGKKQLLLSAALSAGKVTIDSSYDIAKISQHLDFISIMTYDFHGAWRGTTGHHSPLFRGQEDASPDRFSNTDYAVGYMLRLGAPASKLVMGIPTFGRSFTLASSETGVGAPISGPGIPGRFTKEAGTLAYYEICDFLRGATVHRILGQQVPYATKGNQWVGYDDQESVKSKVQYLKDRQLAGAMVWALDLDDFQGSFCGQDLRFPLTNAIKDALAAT

Kd: ~1 nM
B1: anti-human CHI3L1 antibody FRG (antibody, V domains shown)
VH: QIQLVQSGPELKKPGETVKISCKASGYTFTNYGMNWVKQAPGKGLKWMGWINTYTGEPTYADDFKGRFAFSLETSASTAYLQINNLRNEDMSTYFCARLGYGKFYVMDYWGQGTSVTVSS
VL: DVVMTQTPLSLPVSLGDQASISCRSSQSLVHSNGNTYLHWYLQKPGQSPKLLIYKVSNRFSGVPDRFSGSGSGTDFTLKISRVEAEDLGVYFCSQSTHVTWTFGGGTKLEIK
notes: also called anti-CHI3L1; α-CHI3L1
